# Biological target: JASPer protein (1-475) (Drosophila)
# Test: MST; label-free (Monolith NT.LabelFree); JASPer constant at 0.4 uM, reconstituted nucleosomes in a 16-step dilution series (0.5 nM up to 16 uM); 20 mM HEPES pH 7.5, 50 mM NaCl, 1 mM TCEP, 0.05% Tween 20; 24 C; fitted as specific binding with Hill slope
row,Kd [nM],Substance
1,320,H3K36me2 mononucleosome (147 bp) (complex)
2,600,H3K36me3 mononucleosome (147 bp) (complex)
3,4000,"unmodified mononucleosome (147 bp, H3K36me0) (complex)"
